In PMC2115223 one finds fold less potent than nicked CRM197 in competition data, which are given here for 1 substance.

The assay concerns the target diphtheria toxin receptor (14.5-kD protein of Vero cells) (African green monkey (endogenous in Vero)). Put plainly: radioligand binding.

diphtheria toxin receptor (14.5-kD protein of Vero cells) (African green monkey (endogenous in Vero)), sequence (Q09118 20-208 limits assumed): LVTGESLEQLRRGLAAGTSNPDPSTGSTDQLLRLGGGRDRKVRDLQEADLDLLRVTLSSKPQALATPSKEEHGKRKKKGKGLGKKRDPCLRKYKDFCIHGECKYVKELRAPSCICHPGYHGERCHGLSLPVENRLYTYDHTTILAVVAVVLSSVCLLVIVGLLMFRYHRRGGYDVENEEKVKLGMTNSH

CRM228 (natural protein) displayed a fold less potent than nicked CRM197 in competition of 200 times.
